Target: T1, Rev1 C-terminal domain (876–985) of the Rad5–Rev1 fusion protein (S. cerevisiae, UniProt P12689 876-985)
T1 sequence (looked up): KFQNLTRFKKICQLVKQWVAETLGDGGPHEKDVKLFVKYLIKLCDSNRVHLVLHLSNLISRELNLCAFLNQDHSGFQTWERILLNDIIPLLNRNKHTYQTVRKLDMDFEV
Assay: crystal structure

B1: Rad5 peptide (5–20) of the Rad5–Rev1 fusion protein (peptide, UniProt P32849 5-20, looked up)
chain: EQEERKRFFNDDLDTS
binding result: binds

Source: PMC4914093 (Nucleic Acids Research, 2016)
